Assay results: PMC7291239

Tests used:
[1] = molecular target: AnxA2 10x (AnxA2 A66E 6x with R36S, V53A, T54A, K328A in addition, alkylated at Cys-8) (human) (UniProt P07355); test: cross-linking; Ca2+/membrane sample: AnxA2 (60 ug) bound to LUVs (100 nm, POPC:DOPC:Chol:POPS 40:20:20:20, 100 ug) with 1 mM CaCl2 in HBS pH 7.4, 0.3 mM Biotin3xNHSX-Linker added after 30 min for 30 min; 10% SDS-PAGE, Coomassie; oligomer bands above the dimer position quantified against the monomer band
[2] = molecular target: AnxA2 6x (AnxA2 A66E with K81A, E189K, R196S, K206A, K212S, E219K, alkylated at Cys-8) (human) (UniProt P07355); test: as above

Row | Substance | crosslinked oligomers, percent of wild type (% of wild type) [1] | crosslinked oligomers, percent of wild type (% of wild type) [2]
1 | AnxA2 10x (AnxA2 A66E 6x with R36S, V53A, T54A, K328A in addition, alkylated at Cys-8) (from UniProt P07355 21-339) (natural protein) | 33 | –
2 | AnxA2 6x (AnxA2 A66E with K81A, E189K, R196S, K206A, K212S, E219K, alkylated at Cys-8) (from UniProt P07355 21-339) (natural protein) | – | 48
